# Values of other authors, collected in patent US20240408194A1, “DNA ORIGAMI SUBUNIT VACCINE FOR PREVENTION OF SARS-CoV-2 VARIANT INFECTION” (priority 2021, published 2024).
# Target: T1, fibrinogen (Homo sapiens, UniProt P02675+P02679)
# T1 sequence (P02675 31-491): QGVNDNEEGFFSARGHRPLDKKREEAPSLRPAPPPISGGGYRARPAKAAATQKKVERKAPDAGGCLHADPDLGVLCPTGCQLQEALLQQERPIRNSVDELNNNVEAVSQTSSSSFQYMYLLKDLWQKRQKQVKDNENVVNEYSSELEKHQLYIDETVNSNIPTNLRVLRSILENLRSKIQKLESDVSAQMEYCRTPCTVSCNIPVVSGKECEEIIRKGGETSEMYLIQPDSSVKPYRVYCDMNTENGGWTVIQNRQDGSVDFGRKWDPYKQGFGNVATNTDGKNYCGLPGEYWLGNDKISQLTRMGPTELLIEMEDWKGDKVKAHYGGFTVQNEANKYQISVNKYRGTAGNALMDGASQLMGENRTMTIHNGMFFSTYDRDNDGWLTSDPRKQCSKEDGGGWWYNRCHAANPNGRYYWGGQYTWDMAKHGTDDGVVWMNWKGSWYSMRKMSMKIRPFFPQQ
# T1 sequence (P02679 27-453): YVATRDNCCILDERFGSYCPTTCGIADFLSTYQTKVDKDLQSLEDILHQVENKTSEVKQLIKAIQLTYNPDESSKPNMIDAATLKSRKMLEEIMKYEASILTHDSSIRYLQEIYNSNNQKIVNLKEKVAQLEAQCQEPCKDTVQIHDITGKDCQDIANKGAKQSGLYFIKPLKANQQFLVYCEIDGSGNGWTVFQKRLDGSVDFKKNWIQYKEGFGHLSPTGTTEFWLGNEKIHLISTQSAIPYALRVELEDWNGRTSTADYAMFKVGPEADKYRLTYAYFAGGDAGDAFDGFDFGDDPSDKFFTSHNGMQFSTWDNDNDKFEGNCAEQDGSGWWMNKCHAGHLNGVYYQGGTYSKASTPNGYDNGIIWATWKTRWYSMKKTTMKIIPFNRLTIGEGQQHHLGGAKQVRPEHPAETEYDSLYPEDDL
# T1 sequence (P02671 20-629 partner limits assumed): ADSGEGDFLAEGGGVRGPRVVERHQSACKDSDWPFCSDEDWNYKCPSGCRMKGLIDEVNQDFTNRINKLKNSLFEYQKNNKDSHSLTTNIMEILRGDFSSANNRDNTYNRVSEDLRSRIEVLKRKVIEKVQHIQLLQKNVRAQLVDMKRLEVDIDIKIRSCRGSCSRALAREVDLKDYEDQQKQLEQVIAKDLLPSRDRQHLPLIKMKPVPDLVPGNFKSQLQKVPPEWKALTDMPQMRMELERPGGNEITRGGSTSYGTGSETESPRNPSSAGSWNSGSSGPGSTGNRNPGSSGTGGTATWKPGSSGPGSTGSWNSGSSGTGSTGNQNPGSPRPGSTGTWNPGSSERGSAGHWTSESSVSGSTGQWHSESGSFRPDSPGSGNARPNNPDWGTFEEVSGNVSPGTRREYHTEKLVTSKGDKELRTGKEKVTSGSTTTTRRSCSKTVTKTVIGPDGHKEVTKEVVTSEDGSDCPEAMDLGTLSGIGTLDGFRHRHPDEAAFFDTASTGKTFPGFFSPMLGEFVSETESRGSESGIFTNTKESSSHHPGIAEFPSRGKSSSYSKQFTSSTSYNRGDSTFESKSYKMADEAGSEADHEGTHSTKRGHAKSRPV
# Conditions: hydrophobic pocket domains of fibrinogen; cited from earlier work
substance,measurement,value
GPRPXX: short fibrin knob peptide (SEQ ID NO: 3) that recognizes hydrophobic pocket domains of fibrinogen,Kd,5 to 10 µM
